Test results reported in PMC8809517, “Cofactor-independent RNA editing by a synthetic S-type PPR protein”.
Changes are numbered by the printed parent chain.

B1: Cy5-rpoA (ssRNA)
RNA: AUUACACGUGA
B2: Cy5-rpoA-G (ssRNA)
RNA: AUUAGACGUGA
B3: IR-rpoA-A (ssRNA)
RNA: AUUAAACGUGA
B4: IR-rpoA-U (ssRNA)
RNA: AUUAUACGUGA

What was measured:
Assay in all cases: high-throughput RNA pulldown from lysate on Ni-NTA beads; HRP: 50 mM Tris pH 8, 150 mM NaCl, 1 mM beta-mercaptoethanol, 50 ug/ml BSA, 3 ug/ml yeast RNA, 0.5% heparin; ITC and FP: Tris pH 8, 200 mM KCl, 5% glycerol; MST: 50 mM Tris pH 8, 200 mM NaCl, 1 mM DTT, BSA, heparin, 0.05% Tween 20
Conditions in all cases: tags: N-terminal His-eGFP
[1] = target: T1, GFP-9S library array, motif 4 ND N98Y;D124M (synthetic construct, N98Y;D124M)
T1 chain: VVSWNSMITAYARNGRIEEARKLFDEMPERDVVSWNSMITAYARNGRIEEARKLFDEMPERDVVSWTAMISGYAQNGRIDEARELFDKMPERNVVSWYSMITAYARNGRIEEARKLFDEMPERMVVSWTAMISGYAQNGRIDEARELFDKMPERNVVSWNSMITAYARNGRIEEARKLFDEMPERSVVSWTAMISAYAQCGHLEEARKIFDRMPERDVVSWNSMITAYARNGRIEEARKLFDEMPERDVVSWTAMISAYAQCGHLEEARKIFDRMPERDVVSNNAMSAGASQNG

[2] = target: T2, GFP-9S library array, motif 4 ND D124M (synthetic construct, D124M)
T2 chain: T1 chain with Y98N

[3] = target: T3, GFP-9S library array, motif 4 ND N98L;D124T (synthetic construct, N98L;D124T)
T3 chain: T1 chain with Y98L, M124T

[4] = target: T4, GFP-9S library array, motif 4 ND N98Y;D124P (synthetic construct, N98Y;D124P)
T4 chain: T1 chain with M124P

[5] = target: T5, GFP-9S library array, motif 4 ND N98S;D124F (synthetic construct, N98S;D124F)
T5 chain: T1 chain with Y98S, M124F

Row | Binder | Kd ([1]; label: 5' Cy5) | Kd ([2]; label: 5' Cy5) | Kd ([3]; label: 5' Cy5) | Kd ([4]; label: 5' Cy5) | Kd ([5]; label: 5' Cy5) | Kd ([1]; label: 5' IRDye 800CW) | Kd ([2]; label: 5' IRDye 800CW) | Kd ([3]; label: 5' IRDye 800CW) | Kd ([4]; label: 5' IRDye 800CW) | Kd ([5]; label: 5' IRDye 800CW)
1 | B1 | 0.0408 µM | 0.0711 µM | 0.103 µM | 0.106 µM | 0.039 µM |  |  |  |  | 
2 | B2 | 0.0362 µM | 0.139 µM | 0.206 µM | 0.11 µM | 0.0777 µM |  |  |  |  | 
3 | B3 |  |  |  |  |  | 0.124 µM | 0.0781 µM | 0.171 µM | 0.219 µM | 0.0767 µM
4 | B4 |  |  |  |  |  | 0.154 µM | 0.0212 µM | 0.019 µM | 0.16 µM | 0.171 µM
